From article PMC5352318, “Carcinoma-risk variant of EBNA1 deregulates Epstein-Barr Virus episomal latency”

T1: B95-8 EBNA1 DBD (Epstein-Barr virus (strain B95-8)) (UniProt P03211)
T1 sequence: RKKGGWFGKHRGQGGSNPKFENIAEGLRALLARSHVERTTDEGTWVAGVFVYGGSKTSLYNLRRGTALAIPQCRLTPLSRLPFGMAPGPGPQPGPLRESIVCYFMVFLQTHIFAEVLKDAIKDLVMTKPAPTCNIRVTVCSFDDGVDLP

B1: FR single EBNA1 dimer site (SPR) (dsDNA)
DNA 1: GGGAAGCATATGCTTCCC
DNA 2: GGGAAGCATATGCTTCCC

Assays:
[1] = target: T1, B95-8 EBNA1 DBD (Epstein-Barr virus (strain B95-8)); assay: SPR; conditions: SPR (Biacore T200, SA chip): 20 mM Tris pH 8.0, 250 mM NaCl, 5 mM beta-mercaptoethanol, 1 mM MgCl2, EBNA1 0-200 nM; temperature not stated. Crystals: 0.2 M …
[2] = target: B95-8 EBNA1 DBD (Epstein-Barr virus (strain B95-8), UniProt P03211 459-607); assay: SPR; 1 mM Mg2+; range given for both proteins, exact value in Fig 2B; SPR (Biacore T200, SA chip): 20 mM Tris pH 8.0, 250 mM NaCl, 5 mM beta-mercaptoethanol, 1 mM MgCl2, EBNA1 0-200 nM; temperature not stated. Crystals: 0.2 M ammonium acetate, 0.15 M Mg acetate, 0.05 M Hepes pH 7.0, 5% PEG 4000; conditions: protein: recombinant; tags: His6-SUMO tag, cleaved; chain copies: 2; label: 5' biotin; self-complementary 18-mer

Row | Molecule | Kd [1] [nM] | Kd [2] [nM]
1 | CGATAGCATATGCTTCCCGTTGGGTAACATATGCTATTG (double strand) [DS 3+4 (two EBNA1 dimer sites)] | 11.9 | 
2 | B1 |  | ~16.5
